Measured values as given in publication PMC7751889 (Molecular cell, 2019).

Biological target: T1, Med15 (residues 1-651 Δ239-271, Δ373-483), mediator component (yeast, UniProt P19659 1-651, Δ239–271 | Δ373–483)
T1 sequence (looked up): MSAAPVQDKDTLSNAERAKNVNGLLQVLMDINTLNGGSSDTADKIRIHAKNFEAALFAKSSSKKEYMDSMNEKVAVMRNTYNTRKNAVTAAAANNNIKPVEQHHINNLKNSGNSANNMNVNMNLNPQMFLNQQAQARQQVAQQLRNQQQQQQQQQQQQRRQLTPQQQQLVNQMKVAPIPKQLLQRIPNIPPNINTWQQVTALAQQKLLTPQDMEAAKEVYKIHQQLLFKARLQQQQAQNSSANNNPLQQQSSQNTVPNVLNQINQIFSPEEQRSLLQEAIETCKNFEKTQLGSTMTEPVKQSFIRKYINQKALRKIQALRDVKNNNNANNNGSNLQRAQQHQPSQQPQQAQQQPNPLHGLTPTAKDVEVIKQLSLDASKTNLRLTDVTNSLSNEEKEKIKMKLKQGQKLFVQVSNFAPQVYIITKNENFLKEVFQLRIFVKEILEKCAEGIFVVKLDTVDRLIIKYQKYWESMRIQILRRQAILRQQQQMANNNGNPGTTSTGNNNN
Experiment: BLI

B1: Met4 (residues 76 to 160), containing both the UIM and the UIML domains (tandem UBD) (domain or fragment, yeast, UniProt P32389 76-160, looked up)
chain: GNTNLYDHAVTPEILLEQLAYVDNFIPSLDNEFSNVDWNVNTTHNNANNNGADTFSSINANPFDLDEQLAIELSAFADDSFIFPD
modifications: biotin on the Avi tag (BirA)
Kd: 100 nM
